In patent US20050048050A1 (CITY OF HOPE, published 2005) one finds Ka data, which are given here for 2 molecules.

In the test the target is T1, purified human insulin-like growth factor I receptor (IGF-IR) (human, UniProt P08069 31-1367, limits assumed).
T1 construct: The natural receptor is made of alpha and beta subunits from one precursor; also called IGF-R; human IGF-1 receptor
Description: SPR (BIAcore), IGF-IR immobilised on the chip, antibody as analyte. The procedure:
The affinity constants of 1H7 (10⁹ M⁻¹) and αIGF-IR scFv-Fc (10⁸ M⁻¹) for IGF-IR were determined using a BIAcore instrument (BIAcore Inc., Piscataway, N.J.). Analytes, at various concentrations, were passed over IGF-IR-immobilized chips (0.3 μg/chip) at a flow rate of 5 μl/min.

T1 sequence (P08069 31-1367 limits assumed, form in doubt): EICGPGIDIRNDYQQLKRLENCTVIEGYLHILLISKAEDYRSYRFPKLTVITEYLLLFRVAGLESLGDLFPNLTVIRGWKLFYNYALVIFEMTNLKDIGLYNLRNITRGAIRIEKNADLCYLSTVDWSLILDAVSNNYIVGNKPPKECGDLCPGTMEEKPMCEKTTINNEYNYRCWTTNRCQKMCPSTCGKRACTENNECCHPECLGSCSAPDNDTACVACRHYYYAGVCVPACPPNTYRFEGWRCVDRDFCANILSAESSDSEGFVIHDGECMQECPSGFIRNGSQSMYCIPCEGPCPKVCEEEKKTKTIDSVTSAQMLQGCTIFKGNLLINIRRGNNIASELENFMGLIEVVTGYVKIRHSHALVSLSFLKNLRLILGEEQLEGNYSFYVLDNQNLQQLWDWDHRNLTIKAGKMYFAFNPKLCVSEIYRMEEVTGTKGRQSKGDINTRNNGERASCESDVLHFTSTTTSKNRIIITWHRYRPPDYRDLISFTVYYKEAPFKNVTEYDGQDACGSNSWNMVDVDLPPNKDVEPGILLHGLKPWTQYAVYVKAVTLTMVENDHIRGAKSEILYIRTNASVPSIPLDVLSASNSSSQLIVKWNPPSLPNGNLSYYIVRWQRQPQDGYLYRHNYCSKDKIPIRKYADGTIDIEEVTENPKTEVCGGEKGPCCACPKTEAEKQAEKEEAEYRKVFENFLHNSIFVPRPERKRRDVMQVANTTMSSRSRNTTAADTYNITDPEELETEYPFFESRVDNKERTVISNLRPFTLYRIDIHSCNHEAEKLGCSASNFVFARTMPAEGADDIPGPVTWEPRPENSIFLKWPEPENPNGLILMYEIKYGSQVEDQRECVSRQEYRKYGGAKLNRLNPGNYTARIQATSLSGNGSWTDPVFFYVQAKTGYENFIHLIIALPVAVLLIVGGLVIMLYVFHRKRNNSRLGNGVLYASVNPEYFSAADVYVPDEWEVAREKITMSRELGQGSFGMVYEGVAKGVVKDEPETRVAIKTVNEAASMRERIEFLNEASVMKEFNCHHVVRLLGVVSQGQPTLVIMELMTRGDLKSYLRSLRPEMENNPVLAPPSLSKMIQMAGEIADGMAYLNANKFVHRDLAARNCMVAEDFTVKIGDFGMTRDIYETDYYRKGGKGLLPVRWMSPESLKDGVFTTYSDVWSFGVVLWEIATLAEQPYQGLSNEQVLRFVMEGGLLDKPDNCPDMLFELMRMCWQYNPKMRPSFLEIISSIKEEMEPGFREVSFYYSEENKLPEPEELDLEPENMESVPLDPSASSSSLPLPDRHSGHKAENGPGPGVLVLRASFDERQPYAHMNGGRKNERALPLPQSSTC

B1: mouse monoclonal antibody 1H7 (antibody, V domains shown)
VH: EVKVVESGGGLVKPGGSLKLSCAASGFTFSIYAMSWVRQTPEKKLEWVASISNGGTTYYPDSVKGRFTISRDNARNILYLQMNSLRSEDTAMYYCARTFYYSFPRAMDYWGQGTSVTVSS
VL: DIVMTQSHKFMSTSVGDRVNITCKASQDVNTAVAWYQQKPGQSPKLLIYWASTRHTGVPDRFTGSGSGTDFTLTISSVQAEDLTLYYCHQHYTTPYTFGGGTNLEIK
notes: Whole murine monoclonal antibody; also called 1H7 mAb
Take B1: the Ka came out at 1e+09 M⁻¹.

B2: αIGF-IR scFv-Fc (chimeric single-chain antibody against human insulin-like growth factor I receptor) (Fc fusion)
chain: DIVMTQSHKFMSTSVGDRVNITCKASQDVNTAVAWYQQKPGQSPKLLIYWASTRHTGVPDRFTGSGSGTDFTLTISSVQAEDLTLYYCHQHYTTPYTFGGGTNLEIKGGGGSGGGSGGGGSGGGSEVKVVESGGGLVKPGGSLKLSCAASGFTFSIYAMSWVRQTPEKKLEWVASISNGGTTYYPDSVKGRFTISRDNARNILYLQMNSLRSEDTAMYYCARTFYYSFPRAMDYWGQGTSVTVSS
notes: Divalent antibody with an expected Mr of 120 kDa, expressed in NS0 cells and purified on protein A. The signal peptide from the mT84.66 light chain is left out; not shown: human IgG1 Fc domain (cDNA clone from Dr. J. Schlom), SalI fragment inserted into the XhoI site of pcDNA/αIGF-IR scFv
The molecule B2 yielded a Ka of 1e+08 M⁻¹.
